Changes are numbered by the printed parent chain. In names and notes the source's numbering stands.

The target of test [1] is T1, recombinant human FABP5/Mal1 (human, UniProt Q01469 1-135).
T1 construct: Bought; Biotinylated and loaded on streptavidin biosensors; also called hFABP5/hMal1; Mal1/FABP5
The test is described as follows: Octet RED384: biotinylated human FABP5/Mal1 on streptavidin biosensors, maximal association signal minus background. How it is done: The recombinant human proteins aP2 (generated at UCB in E. coli (see method below)), hFABP3 (Sino Biological Inc.) and hFABP5/hMal1 (Sino Biological Inc.) were biotinylated in a 5-fold molar excess of EZ-Link® Sulfo-NHS-LC-Biotin (Thermo Fisher Scientific) and purified from unbound biotin using a Zeba desalting column (Thermo Fisher Scientific). All binding studies were performed at 25° C. using a ForteBio Octet RED384 system (Pall ForteBio Corp.). After a 120 s baseline step in PBS containing 0.05% Tween 20, pH7.4 (PBS-T), Dip and Read™ streptavidin (SA) biosensors (Pall ForteBio Corp.) were loaded with biotinylated recombinant haP2, hFABP3 or hFABP5/hMal1 at 60 nM for 90 s. After a 60 s stabilisation step in PBS-T, each FABP-loaded biosensor was transferred to a sample of monoclonal antibody at 800 nM and association was measured for 5 min. Biosensors were then transferred back to PBS-T for 5 min to measure dissociation. Non-specific binding of antibodies was monitored using unloaded biosensor tips. Maximal association binding i.e., once signal had plateaued, minus background binding, was plotted for each antibody/FABP combination.
For orientation: Biolayer interferometry detects binding as a change in optical thickness at a sensor tip.

In test [2] the target is T2, human aP2 (fatty acid-binding protein, adipocyte, FABP4/aP2) (human, UniProt P15090 1-132, Biotinylated with Sulfo-NHS-LC-Biotin in the Octet assay. Refolded with palmitic acid after delipidation. The letters carry neither.).
T2 construct: also called haP2; human FABP4
As to the kind of experiment: SPR, Biacore T200: antibody captured on immobilized anti-mouse IgG Fc, aP2 titrated 40 to 0.625 µM, steady state fit. On the procedure:
(§1) The affinity of anti-aP2 binding to aP2 (recombinantly generated in E. coli as described below) was determined by biomolecular interaction analysis, using a Biacore T200 system (GE Healthcare). Affinipure F(ab′)2 fragment goat anti-mouse IgG, Fc fragment specific (Jackson ImmunoResearch Lab, Inc.) in 10 mM NaAc, pH 5 buffer was immobilized on a CMS Sensor Chip via amine coupling chemistry to a capture level between 4500-6000 response units (RU) using HBS-EP+(GE Healthcare) as the running buffer. Anti-aP2 IgG was diluted to between 1-10 μg/ml in running buffer. A 60 s injection of anti-aP2 IgG at 10 μl/min was used for capture by the immobilized anti-mouse IgG, Fc then aP2 was titrated from 25 nM to 3.13 nM over the captured anti-aP2 for 180 s at 30 μl/min followed by 300 s dissociation. The surface was regenerated by 2×60 s 40 mM HCl and 1×30 s 5 mM NaOH at 10 μl/min. The data were analyzed using Biacore T200 evaluation software (version 1.0) using the 1:1 binding model with local Rmax. […] The surface was regenerated by 1×60 s 40 mM HCl, 1×30 s 5 mM NaOH and 1×60 s 40 mM HCl at 10 μl/min. Steady state fitting was used to determine affinity values.

The target of test [3] is T3, mouse aP2 (fatty acid-binding protein, adipocyte, FABP4/aP2) (mouse, UniProt P04117 1-132).
T3 construct: Lipid-loaded and de-lipidated preparations are the same polypeptide and are told apart under assay; also called mouse FABP4; murine aP2
T3 sequence: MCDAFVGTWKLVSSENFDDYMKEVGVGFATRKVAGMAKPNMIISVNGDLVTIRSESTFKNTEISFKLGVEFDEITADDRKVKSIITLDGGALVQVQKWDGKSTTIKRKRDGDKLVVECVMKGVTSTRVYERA
The test is described as follows: method not stated in the sentence (FIG. 31); average binding affinity; PB1172, mouse aP2.

Test [4] concerns the target T3, mouse aP2 (fatty acid-binding protein, …). As to the kind of experiment: assay not given; KD (M) column under 'Mouse', second of two rows (also printed as 4.99 under KD (µM)).
Test [5] concerns the target T2, human aP2 (fatty acid-binding protein, …). The test is described as follows: assay not given; KD (M) column under 'Human', second of two rows (also printed as 6.44 under KD (µM)).
For test [6] the target is unchanged. As to the kind of experiment: method not stated in the sentence (FIG. 31); average binding affinity; PB1172, human aP2.
Test [7] shares this target. The test is described as follows: assay not given; KD (M) column under 'Human', first of two rows (also printed as 5.62 under KD (µM)).
For test [8], the target named is T3, mouse aP2 (fatty acid-binding protein, …). The test is described as follows: assay not given; KD (M) column under 'Mouse', first of two rows (also printed as 4.14 under KD (µM)).
Test [9] concerns the target T2, human aP2 (fatty acid-binding protein, …). As to the kind of experiment: SPR, Biacore T200: antibody captured on immobilized anti-mouse IgG Fc, aP2 titrated 25 to 3.13 nM, 1:1 binding model. How it is done:
as §1

Test [10] deals with T3, mouse aP2 (fatty acid-binding protein, …). The test is described as follows: assay not given; KD (M) column under 'Mouse', first of two rows (also printed as 5.53 under KD (µM)).
Test [11] shares this target. The test is described as follows: assay not given; KD (M) column under 'Mouse', second of two rows (also printed as 4.71 under KD (µM)).
For test [12] the target is unchanged. As to the kind of experiment: method not stated in the sentence (FIG. 31); average binding affinity; PB1171, mouse aP2.

T1 sequence (Q01469 whole entry): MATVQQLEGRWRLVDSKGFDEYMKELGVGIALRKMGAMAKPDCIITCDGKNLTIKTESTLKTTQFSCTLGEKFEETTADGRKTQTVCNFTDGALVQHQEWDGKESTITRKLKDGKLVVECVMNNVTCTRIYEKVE

B1: CA33, rabbit-mouse hybrid anti-aP2 monoclonal antibody (Rabbit Ab 909) (antibody, V domains shown)
VH: QSVEESGGRLVTPGTPLTLTCTVSGFSLSTYYMSWVRQAPGKGLEWIGIIYPSGSTYCASWAKGRFTISKASTTVDLKITSPTTEDTATYFCARPDNDGTSGYLSGFGLWGQGTLVTVSS
VL: DVVMTQTPASVSEPVGGTVTIKCQASEDISRYLVWYQQKPGQPPKRLIYKASTLASGVPSRFKGSGSGTDFTLTISDLECDDAATYYCQCTYGTYAGSFFYSFGGGTEVVVE
notes: also called Rabbit Antibody 909
As to B1, in test [1], the binding result is reported as “no binding”. This molecule showed a Kd in test [2] of 2.83 µM.

B2: PB1172 (H3 gL11/gH19), reduced-affinity variant of H3 (antibody, mouse IgG1, V domains shown)
VH: QVQLQQPGAELVKPGASVKLSCKASGYTFTSNAITWVKQRPGQGLEWIGDISPGSGSTTNNEKFKSKATLTVDTSSSTAYMQLSSLTSEDSAVYYCARLRGYYDYFDFWGQGTTLTVSS
VL: EVVLTQSPALMAASPGEKVTITCSVSSSISSSNLHWYQQKSETSPKPWIYGTSNLASGVPVRFSGSGSGTSYSLTISSMEAEDAATYYCQQASHYPLTFGAGTKLELK
notes: Heavy chain W33A, Y52S; light chain W91A, relative to H3; also called 5251.mIgG1168; APP5168/PB1172
With B2, the Kd is 4.57 µM in test [3]; 4.99 µM in test [4]; 6.44 µM in test [5]; 6.03 µM in test [6]; 5.62 µM in [7]; 4.14 µM in [8].

B3: H3, mouse anti-aP2 monoclonal antibody (H3 gL1/gH1) (antibody, V domains shown)
VH: B2 VH with A33W, S52Y
VL: B2 VL with A92W
notes: Mouse IgG; also called wild-type parent H3
Take B3: the binding result in test [1] is recorded as “no binding”. Further, the Kd in test [9] stood at 0.0011 µM.

B4: PB1171 (H3 gL1/gH20), reduced-affinity variant of H3 (antibody, mouse IgG1, V domains shown)
VH: B2 VH with Y102F
VL: B2 VL with A92W
notes: Heavy chain W33A, Y52S, Y98F relative to H3; also called 5252.mIgG1.169; APP5169/PB1171
For the molecule B4, the Kd worked out at 5.53 µM in test [10], 4.71 µM in test [11] and 5.12 µM in [12].

In general, Kd refers to the constant that tells how readily two partners part at equilibrium. High values mean lower affinity, low ones higher affinity.

The record behind these values is US20220089705A1 (Harvard, published 2022).
